Results taken from the nanobody polyreactivity screen of Harvey et al. (2022).

Test: yeast display, Sf9 membrane polyspecificity reagent, FACS + sequencing; frameworks hold sequencing errors
How it was run: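 After 36–48 hours of galactose induction, yeast (Saccharomyces cerevisiae BJ5465) displaying a synthetic nanobody library were stained at 4 °C for 1 hour with 10% biotinylated, detergent-solubilized Sf9 membrane reagent. Streptavidin microbeads enriched the stained cells before FACS sorting into low and high (top ~1%) gates on anti-HA and streptavidin fluorescence. Each clone's polyreactivity label reflects its gate of origin.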

Sequence | polyreactivity (PSR sort gate)
QVQLVESGGGLVQAGGSLRLSCAASGRIFVGNAMGRYRQAPGKERELVAAISRSGGRTYYADSVKGRFTISRDNAKNTVYLQMNSLKPEDTAVYYCNTRVYAGKYDYWGQGTQVTVSS | high polyreactivity
QVQLVESVGGLVQAGGSLRLSCAASGSILAVNAMGWYRQAPGKERELVAAISSRGGSTSYADSVKGRYTISRDNAKNTVYLQMNSLKPEDTAVYYCAVRAVRRLRTSVPVRFYYWGQGTQVTVSS | high polyreactivity
QFQLLESGGGLVQAGGSLRLICAASGFICSLYAMGWYRPAPGKERELVATINRRGTSTFYADSVKGRFTISRDNAKNTVYLQMNSLKPEDTAVYYCNAYPGAAIRSTGRYDYWGQGTQVTVSS | low polyreactivity
QVQHVESGGGLVQAGCSLRLSCAASGRTFSSNAMGWYRQAHGKVRELVAVISSGGSTYYADSVKGRFTISRDNAKNTVYLEMYSMKPEDTAVYICAAAVGPSGYYYESDYWGQGTQETVSS | high polyreactivity
QVQLVESGGGLVQAGGSLRLSCAASGRIFNPYAMGWYRQAPWKERELVAAIRRSGVDTYYADSVKGRFTNSRDNAKNTVYFQMNSLKPEDTAVYYCNAVYKRIGYSEFDYWGQGTQVTVSS | low polyreactivity
QVQLVESGGGLVQAGGSLRLSCAASGRTFIEYAMGWYRQAPGKERELVAAISRNDGGSTYYADSVKGRFTISRDNAKNTVYLQMNSLKPEDTAVYYCAARRYISAHVRYGSWGQGTQVTVSS | high polyreactivity
QVQLVESGGGLVQAGGSLRLSCADSGQNAMGWYRQAPGKERELVAAISRGGDSTYYADSVKGRFTISRDNAKNSVYLQMNSLKPEDTAVYYCAASYYRRYGYNYWGQGTQVTVSS | high polyreactivity
QVQLVESGGGLVQAGGSLRLSCAASGSTFVYYTMGWYRQAPGKERELVAAINNGGSTYYADSVKGRFTISRDNAKNTVYLQMNSLKPEDTAFYYCARFTSRVSKYYWGQGSQVTVSS | low polyreactivity
QVQLVESGGGLVQAGGSLRLSCAASGRILAGYAMGWYRQAPGKERELVAAITRGGTTYYADSVKGRFTISRDNAKNSVYLQMNSLKPEDTAVVYTVSSAQYDYCGQGTQVTVSS | low polyreactivity
QVQLVESGGGLVQAGGSLRLSCAASGSIFSLYAMGWYRQAPGKERELVTAITSGGRTKYADSVKGRFTISRDNAKNTVYLQMNSLKPEDTAVYYCAARDDSEKRYLTQYAYNYWGQGTQVTVSS | low polyreactivity
QVQLVESGGGLVQAGGSLRLSCAASGIIIRYYGMGWYRQAPGKERELVARIRWTGGSTYYADSVKGRFTISRDNAKNTVYLQMNSLKPEDTAVYYCAADIWQYSRIANYHPYDYWGQGTQVTVSS | low polyreactivity
QVQLVESGGRLVQAGGSLRLSCAASGRTLSSYVIGWYRQAPGKERELVAAITQSTSRTYYADSVKGRFTISRDNAKNTVYLQMHSLKPEDTAVYYCAAEGRFGRKYGYWGQGTQVTVSS | low polyreactivity
QVQLVESGGGLVQAGGSLRLSCAASGSIFSSYAMGWYRQAPGKERELVAAISSGGGITYYADSVKGRFTISRDNAKNTVYLQMNSLKPEDTAVYYCNARVARSNNGWYYYWGQGTQVTVSS | high polyreactivity
QVQLVESGGGLVQAGGSLRLSCAASGFTFDLYAKGWYRQAPGKERELVAVITRGGSTYYADSVKGRFTISRDNAKNTVYLQMNSLKPEDTAVYYCAKYSIIDWWGGEDYWGQGTQVTVSS | high polyreactivity
QVQLVESGGGLVQAGGSLRLSCAASRITSYGYAMGWYRQAPGKERELVAAISRSGGTTYYADSVKGRFTISRDNAKNTVYVQMNILKPEDTAVYYCAVGKSHRGGGVTKFNYWGQGTQVTVSS | low polyreactivity
QVQLVESGGGLVQAGGSLRLSCAASGRTFYPNAMGWYRQAPGKERELVAAITTDGSTYYADSVKGRFTISRDNAKNTVYLQMNSLKPEDTAVYYCAARGFWWPYTYYYWGHGTQVTVSS | high polyreactivity

Sequence | polyreactivity (PSR sort gate)
QVQLVESGGGLVQAGGSLRLSCAASGSIFSGYVMGWYRQAPGKERELVAAISGSGGSTYYADSVKGRFTISRDNAKNTVYLQMNSLNPEDTAVYYCNKGLSRSYWWVDYWGQGTQVTVSS | low polyreactivity
QVQLVESGRGLVQAGGSLRLSCAASGSTFGPYAMGWYRQAPGKEREFVAGISKSTSSTYYADSVKGRFTISRDNAKNTVYLQMNSLKPEDTAVYYCAAQGGRNRGYRYYWGQGTQVTVSS | high polyreactivity
QGQLVESGGGLVQAGGSLRLSCAASGYIFDWYAMGWYRQAPGKEREFVAAISGSDGSTYYADSVKGRFTISRDNAKNTVYLQMNSLKPEDSAVYYCAADPYYGEMEYWGQGTQVTVSS | low polyreactivity
QVQLLESGGGLVQAGGSLRLSCAASGRILRINTMGWYRQAPGKERELVAAISWSGGTTYYADSVKGRFTISRDNAKNTVYLQMNSLKPEDTAVYYCNKAIWYAEYDYWGQGTQVTVSS | low polyreactivity
QVQLVESGGGLVQAGGSLRLSCAASGFISTINVMGWYRQAPGKEREMVAAMTYIDGSTFYADSVKGRFTISRDNAKNTVYLQMNSLKPEDTAVYYCAADLYQWGAVFLYVRSTGLDYWGQGTQVTVSS | low polyreactivity
QVQLVESGGGLVQAGGSLRLSCAASGSTFYKYAMGWYRQAPGIEPELVAAISRGGSTYYADSVKGRFTISRDNAKNTVYLQMNSLKPEDTAVYYCAAETVSYYSKYDYWGQGTQVTVSS | low polyreactivity
QVQLVDSGGGLVQAGGSISLSCAASGRTFFVNAMGWYRQAPGKERELVAAITRRGGITYYADSVKGRFTISRDNAKNTVYLQMNSLKPEDTAVYYCAADRSYYPDTRTTYGYNYWGQGTQVTVSS | low polyreactivity
QVQLEESGGGLVQAGGSLRLSCAASGRIFPRNAMGWYRQATGKERELVASITSGGSTNYADSVKGRFTISRDNAKNTVYLQMHSLKPEDTAVYYCAADRTGYQLETTEYDYWGQGTQVTVSS | high polyreactivity
QVQLEESGGGIVQAGGSLRLSCAASGRTFYGYAMGWYRQAPGKEREFVAAINERGTSTYYADSVKGRFTISRDNAKNTVYLQMNSLKPEDTAVYYCAARYLRTQYQDGTRSRIQLDYWGQGTQVTVSS | high polyreactivity
QVQLVDSGGGLVQAGGSLRLSCAASGIIFVGYAMGWYRQAPGKERELVAAITYNVGSTYYADSVKGRFTISRDNAKNTVYLQMKSLKPEDTAVYYCNADRYPFFDLLISRYGSNPYDYWGQGTQVTVSS | low polyreactivity
QVQLVESGGGLVQAGGSLRLSCAASGLTFQYYAMGWYRQAPGKERELVATISGRAGRTYYADSVKGRFTISRDNAKNTVYLQMNSLKPEDTAVYYCAAEVDYSLYTWYEYYYWGQGTQVTVSS | high polyreactivity
QVQLQDSGGGLVQAGGSLRQSYAASGYIFPSLAMGWYRQAPGKEREFVAAIGRGSTNNYADSVKGRFTISRDNAKNTAYQQMNSLKPEDTAVYYCAAAASPLTRHLYWGQGTQVTVSS | low polyreactivity
QVQLEETGGGLVQAGGSLRLSCAASGITFGDYAMGWYRQAPGKERELVAAISFTGASTYYADSVKWRFTISRDNAKNTVYLLMNSLKPDDTPVYYCAADPYVPYQDFLSGFDFWGQGTQVTVSW | low polyreactivity
QVQLVESGGGLVQAGGSLRISCASSGSIFYLNAMGWYRQAPGKERELVAAISRRGGTTSYADSVKGRFTISRDNAKNTVFLQMNSLKPEDTAVYYCAKRTKPSKNYYYWGQGTQVTVSS | high polyreactivity
QVQLVESGGGLVQAGGRLRLSCAASGSNFGLNALGWYRQAPGKERELVAAINSDADTYYADSVKGRFTISRDNAKNTVYLQMNSQKPADTAVYYCAADYYWDPFDSNFGHVPQEYESWGQGTQVTVSS | low polyreactivity
